The values that follow come from US20040171074A1, “Structures of substrate binding pockets of SCF complexes” (MOUNT SINAI HOSPITAL, priority 2002, published 2004).

The target of one assay is T1, Cdc4 (Saccharomyces cerevisiae, UniProt P07834).
T1 sequence (P07834 1-779): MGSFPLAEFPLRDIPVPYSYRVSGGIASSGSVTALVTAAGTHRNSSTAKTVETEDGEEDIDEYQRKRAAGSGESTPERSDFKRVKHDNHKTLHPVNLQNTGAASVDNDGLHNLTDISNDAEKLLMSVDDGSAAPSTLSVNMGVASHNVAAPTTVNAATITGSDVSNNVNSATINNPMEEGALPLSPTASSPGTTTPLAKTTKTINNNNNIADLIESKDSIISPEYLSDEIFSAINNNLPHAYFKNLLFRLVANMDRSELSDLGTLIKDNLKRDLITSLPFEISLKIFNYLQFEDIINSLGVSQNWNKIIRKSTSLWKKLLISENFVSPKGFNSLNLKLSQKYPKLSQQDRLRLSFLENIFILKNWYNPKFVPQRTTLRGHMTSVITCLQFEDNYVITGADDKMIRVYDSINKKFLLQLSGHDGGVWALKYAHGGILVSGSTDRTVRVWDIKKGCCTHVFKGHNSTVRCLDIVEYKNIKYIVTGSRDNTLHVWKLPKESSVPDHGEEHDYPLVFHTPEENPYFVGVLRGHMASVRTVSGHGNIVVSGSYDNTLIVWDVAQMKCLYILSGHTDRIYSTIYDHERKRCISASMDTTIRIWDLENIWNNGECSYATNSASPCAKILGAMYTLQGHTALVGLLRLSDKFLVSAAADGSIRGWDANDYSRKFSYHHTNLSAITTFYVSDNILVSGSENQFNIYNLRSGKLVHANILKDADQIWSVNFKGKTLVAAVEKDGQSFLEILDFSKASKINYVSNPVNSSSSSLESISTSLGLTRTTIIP
The following applies: cyclin E derived nine-residue CPD phosphopeptide binding Cdc4 (Nash et al., 2001); cited from earlier work.

A further assay concerns phospho-Sic1. In words: P-Sic1 pull down: in vitro capture of phospho-Sic1 on immobilized wild type or mutant Cdc4-GST-Skp1, anti-Sic1 immunoblot. The note with it: Sic1 phosphorylated with Cln2-Cdc28, captured onto GST-Skp1/Cdc4 resin, anti-Sic1 detection. The format is binding, yeast. The essentials: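 Bacterial His6-Sic1 phosphorylated by Cln2-Cdc28 from Sf9 cells; 0.5 μg phospho-Sic1 incubated with 1 μg immobilized wild-type or mutant Cdc4(263-744)-GST-Skp1 at 4° C for 1 h, washed four times. Bound Sic1 detected by anti-Sic1 immunoblot after SDS-PAGE.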
A general note: In western blotting, separated proteins are transferred to a membrane and probed.

The subject of another assay is cdc4Δ strain. As to the kind of experiment: plasmid shuffle assay: complementation of a cdc4Δ strain by CDC4 alleles. The assay is classed as cell-based, yeast. The note with it: viability of cdc4Δ strain on 5-FOA, 2 days at 30° C. The essentials:
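Mutant CDC4 alleles on TRP1 CEN plasmids were shuffled into cdc4Δ strain MT 1259 carrying wild-type CDC4 on a URA3 plasmid, with growth on 5-FOA for 2 days at 30° C. Survivors were transformed with GAL1-SIC1 or phosphosite mutants and plated on glucose or galactose, 2 days at 30° C.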

A further assay deals with T2, Skp1 (Saccharomyces cerevisiae, UniProt P52286).
T2 construct: GST (N); made in house; host or cells: bacteria
T2 sequence (P52286 2-194 limits assumed): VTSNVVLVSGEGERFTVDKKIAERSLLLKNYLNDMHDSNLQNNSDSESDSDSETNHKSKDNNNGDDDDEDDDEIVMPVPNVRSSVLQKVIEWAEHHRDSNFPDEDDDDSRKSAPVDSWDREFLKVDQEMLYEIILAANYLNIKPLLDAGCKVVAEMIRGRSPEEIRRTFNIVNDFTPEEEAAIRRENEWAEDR
In words: Skp1 binding in vitro (pull down). On the set-up: species or system yeast. The source says: In order to probe the functional importance of amino acid residues on the highly conserved peptide binding surface, a panel of Cdc4 mutants (both single and double mutant) were generated and tested each for its ability to bind phospho Sic1 and Skp1 in vitro using a pull down assay and for its ability to substitute for wt-cdc4 in vivo using a cell viability assay. Of 12 single site mutants tested, only Arg 467. Arg485Ala Arg534Ala, and Trp 426 abolished both cell viability in vivo and phosphoSic1 binding in vitro. Together, these residues compose most of the interaction surface with the pThr, Pro CPD core. […] Presumably in the context of the full SCF complex in vivo this mutant is sufficiently well behaved to bind phospho Sic1.

The next assay concerns phospho-Sic1 isoforms. As to the kind of experiment: IEF-2D gel analysis of Sic1 phospho-isoforms captured by wild type or mutant Cdc4-GST-Skp1. The format is binding, yeast. The following applies: pool of Sic1 phosphorylated on 1 to 9 sites. On the procedure: Bacterially expressed His6-Sic1 was phosphorylated with Cln2-Cdc28 kinase purified from baculovirus infected Sf9 cells as described before (Nature paper). 1 ug of WT or mutant Cdc4-GST-Skp1, immoblized on GSH-Sepharose resin, was incubated with 0.5 ug phospho-Sic1 at 4 C for 1 h and washed 4 times. Captured complexes were resolved on SDS-PAGE and Sic1 visualized by anti-Sic1 Western blotting and ECL. For IEF-2D analysis, several Sic1 phosphorylation reactions were carried out for different time periods to obtain a spectrum of Sic1 that were phosphorylated at different numbers of its nine CDK sites. This pool of phospho-Sic1 (2.5 ug) was incubated with 5 μg of WT or mutant Cdc4-GST-Skp1 as described above. Different phosphorylation states of Sic1 were separated by denaturing isoelectric focusing (IEF)-2D gel electrophoresis and visualized by anti-Sic1 Western blotting and ECL. IEF was performed using pH 3-10NL Immobiline gel strips and IPGphore IEF system (Amersham pharmacia).
Cdc4 functional assays. CDC4 mutant alleles were assessed for complementation of a cdc4A strain in a plasmid shuffle assay (Nash et al., 2001). Sensitivity to SIC1 dosage was determined by transformation with pMT837 (GAL1-SIC1) or pMT767 (GAL1-SIC1^T33V) and plating on glucose medium or galactose medium. […]

The subject of assay [1] is cdc4Δ strain overexpressing SIC1. In words: sensitivity to SIC1 dosage: GAL1-SIC1 overexpression in strains bearing CDC4 alleles. The note with it: galactose, 2 days at 30° C. The format is cell-based, yeast. The essentials: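 SIC1 dosage sensitivity: cdc4Δ strains carrying CDC4 mutant alleles (after plasmid shuffle) transformed with GAL1-SIC1 or GAL1-SIC1^T33V (also T45A), plated on glucose versus galactose medium for 2 days at 30 °C. Growth on galactose scored as tolerance of SIC1 overexpression.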

Where a chain is given by its changes, count along the chain named. Names and notes keep the numbering of the source. “Also recorded” adds a separate entry of the source. Non-standard residues stand in square brackets, D forms with d. pT = C[C@@H](OP(=O)(O)O)[C@H](N)C(=O)O

On to “Ac-GLL[pT]PPQSG-NH2 [CPD phosphopeptide]”, for which, on Cdc4, the Kd was 1 µM.

B1: R534A: mutant cdc4 polypeptide (protein)
chain: T1 sequence (P07834 1-779) with R534A
Regarding B1, the P-Sic1 pull down entry with phospho-Sic1 is “no bind”; in the assay with phospho-Sic1 (listed as Arg534Ala) it was “abolished; also recorded: unable to bind”. Moreover, the shuffle entry with cdc4Δ strain is “dead”; in the assay on cdc4Δ strain (listed as Arg534Ala), “abolished; also recorded: unable”. Further, the Skp1 binding result with Skp1 is reported as “fully competent”.

B2: W426A: mutant cdc4 polypeptide (protein)
chain: T1 sequence (P07834 1-779) with W426A
Consider B2, for which the P-Sic1 pull down entry in the assay on phospho-Sic1 is “no bind”; in the assay on phospho-Sic1 (listed as Trp 426) it was “abolished”; with phospho-Sic1 (listed as Trp426Ala), “unable to bind”. Besides, the shuffle result is recorded as “dead” in the assay with cdc4Δ strain, “abolished” in the assay on cdc4Δ strain (listed as Trp 426) and “unable” in the assay with cdc4Δ strain (listed as Trp426Ala). Further, the Skp1 binding result in the assay with Skp1 is “fully competent”.

B3: W717N/V384N: double mutant cdc4 polypeptide compromised for selection at P−1 (protein)
chain: T1 sequence (P07834 1-779) with V384N, W717N
Consider B3, for which the P-Sic1 pull down entry with phospho-Sic1 is given as “bind”; with phospho-Sic1 (listed as V384N/W717N) it was “fully competent”. For the same molecule, the shuffle entry in the assay with cdc4Δ strain was “alive”; in the assay with cdc4Δ strain (listed as V384N/W717N) it was “viable”. Moreover, the “Sic1 phospho-isoforms captured (number of phosphorylated sites)” value with phospho-Sic1 isoforms is “as few as four”. For the same molecule, the “gal Sic1T33V” value in assay [1] (GAL1-SIC1 T33V (partially stabilized Sic1)) is “dead”. Moreover, the “gal Sic1T45A” value in assay [1] (GAL1-SIC1 T45A) is on record as “dead”. In assay [1] (GAL1-SIC1 wild type), the “gal Sic1 wt” value is given as “alive”.

The Kd is the concentration at which binding is half-saturated.
